Measurements taken from publication PMC8826748 (Nature, 2021).

Target: the molecule itself
Assay: cryo-EM structure

B1: near-full-length human calcium-sensing receptor (CaSR, residues 20-894), Flag-tagged (receptor)
chain: AAAYGPDQRAQKKGDIILGGLFPIHFGVAAKDQDLKSRPESVECIRYNFRGFRWLQAMIFAIEEINSSPALLPNLTLGYRIFDTCNTVSKALEATLSFVAQNKIDSLNLDEFCNCSEHIPSTIAVVGATGSGVSTAVANLLGLFYIPQVSYASSSRLLSNKNQFKSFLRTIPNDEHQATAMADIIEYFRWNWVGTIAADDDYGRPGIEKFREEAEERDICIDFSELISQYSDEEEIQHVVEVIQNSTAKVIVVFSSGPDLEPLIKEIVRRNITGKIWLASEAWASSSLIAMPQYFHVVGGTIGFALKAGQIPGFREFLKKVHPRKSVHNGFAKEFWEETFNCHLQEGAKGPLPVDTFLRGHEESGDRFSNSSTAFRPLCTGDENISSVETPYIDYTHLRISYNVYLAVYSIAHALQDIYTCLPGRGLFTNGSCADIKKVEAWQVLKHLRHLNFTNNMGEQVTFDECGDLVGNYSIINWHLSPEDGSIVFKEVGYYNVYAKKGERLFINEEKILWSGFSREVPFSNCSRDCLAGTRKGIIEGEPTCCFECVECPDGEYSDETDASACNKCPDDFWSNENHTSCIAKEIEFLSWTEPFGIALTLFAVLGIFLTAFVLGVFIKFRNTPIVKATNRELSYLLLFSLLCCFSSSLFFIGEPQDWTCRLRQPAFGISFVLCISCILVKTNRVLLVFEAKIPTSFHRKWWGLNLQFLLVFLCTFMQIVICVIWLYTAPPSSYRNQELEDEIIFITCHEGSLMALGFLIGYTCLLAAICFFFAFKSRKLPENFNEAKFITFSMLIFFIVWISFIPAYASTYGKFVSAVEVIAILAASFGLLACIFFNKIYIILFKPSRNTIEEVRCSTAAHAFKVAARATLRRSNV
B1: binds.
